Values of other authors as cited in publication PMC10565355.

Target: Fibrinogen (Homo sapiens) (UniProt P02671)
UniProt P02671, sequence (P02671 36-866, chain 1 of 3): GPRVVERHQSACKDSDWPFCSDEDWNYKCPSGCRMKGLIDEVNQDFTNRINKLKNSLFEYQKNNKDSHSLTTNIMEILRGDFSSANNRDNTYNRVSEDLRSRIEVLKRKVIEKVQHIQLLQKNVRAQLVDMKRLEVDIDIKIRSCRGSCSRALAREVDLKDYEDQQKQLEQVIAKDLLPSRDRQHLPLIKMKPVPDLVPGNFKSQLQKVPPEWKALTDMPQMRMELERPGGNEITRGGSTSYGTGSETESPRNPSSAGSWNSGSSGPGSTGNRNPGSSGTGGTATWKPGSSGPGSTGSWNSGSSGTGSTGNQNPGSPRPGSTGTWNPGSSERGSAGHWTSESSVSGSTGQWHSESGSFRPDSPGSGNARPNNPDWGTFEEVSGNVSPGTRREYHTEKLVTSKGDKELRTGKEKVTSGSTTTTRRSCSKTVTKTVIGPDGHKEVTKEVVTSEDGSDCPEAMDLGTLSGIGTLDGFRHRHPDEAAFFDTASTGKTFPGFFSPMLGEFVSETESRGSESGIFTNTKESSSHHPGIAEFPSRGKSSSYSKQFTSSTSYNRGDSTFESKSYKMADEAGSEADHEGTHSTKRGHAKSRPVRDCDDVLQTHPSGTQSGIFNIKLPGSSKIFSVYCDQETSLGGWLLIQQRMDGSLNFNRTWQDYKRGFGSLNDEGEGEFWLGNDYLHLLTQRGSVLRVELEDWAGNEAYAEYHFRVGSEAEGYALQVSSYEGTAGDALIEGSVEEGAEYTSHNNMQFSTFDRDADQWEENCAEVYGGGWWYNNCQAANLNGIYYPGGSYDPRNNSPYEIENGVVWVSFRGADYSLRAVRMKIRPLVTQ
UniProt P02671, sequence (P02675 45-491, chain 2 of 3, further chain): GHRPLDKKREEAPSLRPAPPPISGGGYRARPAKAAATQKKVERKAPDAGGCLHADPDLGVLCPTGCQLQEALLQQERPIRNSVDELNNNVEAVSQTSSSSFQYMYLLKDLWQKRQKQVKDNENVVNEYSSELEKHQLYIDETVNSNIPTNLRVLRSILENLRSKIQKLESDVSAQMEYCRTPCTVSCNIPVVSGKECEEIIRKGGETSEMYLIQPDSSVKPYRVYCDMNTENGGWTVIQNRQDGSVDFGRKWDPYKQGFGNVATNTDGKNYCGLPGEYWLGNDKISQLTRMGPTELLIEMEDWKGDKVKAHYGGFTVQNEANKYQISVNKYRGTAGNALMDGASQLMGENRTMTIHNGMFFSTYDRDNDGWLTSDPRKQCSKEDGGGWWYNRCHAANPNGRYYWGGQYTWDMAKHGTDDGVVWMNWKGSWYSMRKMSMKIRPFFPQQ
UniProt P02671, sequence (P02679 27-453, chain 3 of 3, further chain): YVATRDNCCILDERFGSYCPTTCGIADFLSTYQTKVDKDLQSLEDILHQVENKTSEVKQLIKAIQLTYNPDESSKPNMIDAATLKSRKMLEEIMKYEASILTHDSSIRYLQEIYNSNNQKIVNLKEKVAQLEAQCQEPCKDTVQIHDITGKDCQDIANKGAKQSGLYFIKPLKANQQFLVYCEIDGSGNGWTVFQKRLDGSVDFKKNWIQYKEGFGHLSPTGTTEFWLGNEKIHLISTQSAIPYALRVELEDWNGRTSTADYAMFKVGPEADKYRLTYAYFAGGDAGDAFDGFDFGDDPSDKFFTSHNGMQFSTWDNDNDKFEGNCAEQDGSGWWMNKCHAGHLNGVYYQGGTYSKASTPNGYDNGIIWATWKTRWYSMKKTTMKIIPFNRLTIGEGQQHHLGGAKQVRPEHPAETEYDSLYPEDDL

In the case of Efb EfbA (from UniProt A6QG59), the Kd is listed as 1000 nM.
